In PMC12048173:

Biological target: Full-length Stigmatella aurantiaca bacteriophytochrome 2 (SaBphP2), Pr state (Stigmatella aurantiaca)
Test: cryo-EM structure; single-particle cryo-EM, Spotiton nanowire grid, 0.4 mg/ml, pre-illuminated with 740 nm light (pure Pr state); global resolution 6.0 Å; subunits fitted as rigid units, not refined

stoichiometry N: 2
Substance: Full-length Stigmatella aurantiaca bacteriophytochrome 2 (SaBphP2), Pr state (natural protein)
